{"source": "patent US20030013169", "about": "“Transcription factor E2F DNA-binding domain inhibitor peptides and their use” (published 2003)", "binders": {"B1": {"name": "B-myb E2F probe (dsDNA)", "DNA 1": "CGACGCGCTTGGCGGGAGATAGAAAAGTGC", "DNA 2": "GCACTTTTCTATCTCCCGCCAAGCGCGTCG"}}, "target": "E2F1/DP1 heterodimer (Homo sapiens, UniProt Q01094;Q14186 Q01094:64-301,Q14186:85-249)", "sequence (Q01094 64-301, chain 1 of 2)": "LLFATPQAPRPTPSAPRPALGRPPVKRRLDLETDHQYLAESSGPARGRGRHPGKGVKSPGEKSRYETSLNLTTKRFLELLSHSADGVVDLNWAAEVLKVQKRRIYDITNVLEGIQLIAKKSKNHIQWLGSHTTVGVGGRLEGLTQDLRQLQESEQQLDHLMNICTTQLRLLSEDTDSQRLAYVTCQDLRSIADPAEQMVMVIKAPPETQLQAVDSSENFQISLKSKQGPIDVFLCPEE", "sequence (Q14186 85-249, chain 2 of 2)": "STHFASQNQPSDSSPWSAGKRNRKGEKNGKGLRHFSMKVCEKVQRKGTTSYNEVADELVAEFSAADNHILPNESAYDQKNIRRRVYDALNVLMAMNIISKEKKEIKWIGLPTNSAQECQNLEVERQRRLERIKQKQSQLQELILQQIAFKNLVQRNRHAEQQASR", "experiment": "EMSA; binding inhibited by peptides SEQ 2, 4, 5 with IC50 50-100 uM; about 100-fold lower for MAP-branched SEQ 2; room temperature", "details": "tags: His-E2F1 (pET28b); GST-DP1; label: 32P fill-in", "protocol": "Purified E2F1 N1-His (64-301) and DP1 N2-GST (84-249) were incubated at 10 μg/ml in a buffer containing 10 mM HEPES, […], 1 mM EDTA, […], 33 mg/ml BSA and 0.1 μg of sonicated salmon sperm for 10 minutes on ice. ³²P-labelled probe was added and the reaction mixture was incubated at room temperature for 20 minutes. Probes were labelled by filling-in 5′ overhanging ends of 4-7 bases. Samples were run on 4% non denaturing polyacrylamide gel in 0.5% TBE at 4° C. Gels were exposed to X-ray films. Nuclear extract (3 μg) was incubated in 17 μl buffer containing 0.3 M NaCl, 0.4 M Tris pH 7.9, 100 mM EDTA, 0.4 M DTT, 13% glycerol, 1 μg of sonicated salmon sperm on ice. The samples were then incubated for 10 minutes at 30° C. and cooled on ice. ³²P-labelled probe was added, the reaction mixtures were incubated for another 10 minutes at 30° C. and then cooled on ice.\nThe inhibitory potential of the peptides on E2F function was analysed in band shift assays with recombinant E2F1 and DP1. […] The IC₅₀ concentrations for the 3 peptides were in the range of 50-100 μM. Inhibition to various extends was also observed using recombinant fragments of E2F2, E2F3, E2F4, E2F5, respectively. Approximately 100-fold lower IC50 values were found with a branched molecule consisting of 4 copies of SEQ ID NO:2 linked by MAP (multiple antigen peptide)."}
{"binder": "B1", "values": [{"measurement": "binding result", "value": "binds"}]}
